{"source": "the supplement of paper PMC12764529", "key": {"[1]": {"assay": "folding stability dG unfold (combined trypsin and chymotrypsin); higher = more stable", "method_in_brief": "(§1)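 Designed mini-proteins (under 80 residues, no cysteine) in a PA-tagged cDNA display construct were digested with trypsin and chymotrypsin. Each protease was used at 11 concentrations (threefold dilutions) plus a no-protease condition, followed by sequencing. K50 was inferred by Bayesian fitting of sequencing counts, and unfolding free energy was derived against a sequence-predicted unfolded-state K50 and a shared folded-state K50, per protease or combined. Only designs with AlphaFold2 dimer inter-PAE above 15 were kept.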"}, "[2]": {"assay": "folding stability dG unfold from chymotrypsin proteolysis; higher = more stable", "method_in_brief": "as §1"}, "[3]": {"assay": "folding stability dG unfold from trypsin proteolysis; higher = more stable", "method_in_brief": "as §1"}}, "note": "± gives the half width of the 95% confidence interval.", "data": [{"sequence": "SAGPPKKVEIPVRYPFDGWEIMIQIDPKDPKIEIHVHNPEHRERAREYARTIARIFQENGIPVEIEPWSAGG [r19_354_TrROS]", "values": [{"measurement": "folding stability dG unfold", "setting": "[1]", "result": "1.73 ± 0.21", "unit": "kcal/mol"}, {"measurement": "folding stability dG unfold", "setting": "[2]", "result": "1.91 ± 0.095", "unit": "kcal/mol"}, {"measurement": "folding stability dG unfold", "setting": "[3]", "result": "1.48 ± 0.057", "unit": "kcal/mol"}]}, {"sequence": "SAGGSAGGSVKITTEPDPNGYYRVTVTIRLNDKPIPVDMPFPPGKTPDQVKEKARDIAKELLKSAGGSAGGS [r12_69_TrROS]", "values": [{"measurement": "folding stability dG unfold", "setting": "[1]", "result": "0.455 ± 0.091", "unit": "kcal/mol"}, {"measurement": "folding stability dG unfold", "setting": "[2]", "result": "0.546 ± 0.13", "unit": "kcal/mol"}, {"measurement": "folding stability dG unfold", "setting": "[3]", "result": "0.249 ± 0.089", "unit": "kcal/mol"}]}, {"sequence": "SAGGSAGGSAGSMTLLATETFPETGKTVKYYKEGDTIYRVDYSDPKNPVVTELSPSDPLKSAGGSAGGSAGG [r17_145_JUSTAS]", "values": [{"measurement": "folding stability dG unfold", "setting": "[1]", "result": "2.12 ± 0.086", "unit": "kcal/mol"}, {"measurement": "folding stability dG unfold", "setting": "[2]", "result": "2.29 ± 0.054", "unit": "kcal/mol"}, {"measurement": "folding stability dG unfold", "setting": "[3]", "result": "1.68 ± 0.09", "unit": "kcal/mol"}]}, {"sequence": "SAGGSAGGPPGEPPDVKVIPIEIEHERYNPDDGEMEVETIPFPIVIAPDGTIYHGDRPIPPDDISAGGSAGG [r6_515_TrROS]", "values": [{"measurement": "folding stability dG unfold", "setting": "[1]", "result": "1.8 ± 0.41", "unit": "kcal/mol"}, {"measurement": "folding stability dG unfold", "setting": "[2]", "result": "1.41 ± 0.09", "unit": "kcal/mol"}, {"measurement": "folding stability dG unfold", "setting": "[3]", "result": "2.02 ± 0.24", "unit": "kcal/mol"}]}, {"sequence": "SAGGSEAIKEALELAKENPGKTVEVEIKNEDGSIYKIKIEVKEGKVVKVEVEKVKKEEVLSEEEKKSAGGSA [r2_263_TrROS_Hall]", "values": [{"measurement": "folding stability dG unfold", "setting": "[1]", "result": "2.12 ± 0.1", "unit": "kcal/mol"}, {"measurement": "folding stability dG unfold", "setting": "[2]", "result": "2.49 ± 0.043", "unit": "kcal/mol"}, {"measurement": "folding stability dG unfold", "setting": "[3]", "result": "1.01 ± 0.1", "unit": "kcal/mol"}]}, {"sequence": "SMVTETSEEVKLPSPVRLLIDKKITTFPESGVVEVPTLVTVIPPSGPDTTLPYRVLYTINDDTYTEKRLLSA [r9_154_JUSTAS]", "values": [{"measurement": "folding stability dG unfold", "setting": "[1]", "result": "-0.125 ± 0.14", "unit": "kcal/mol"}, {"measurement": "folding stability dG unfold", "setting": "[2]", "result": "-0.0857 ± 0.12", "unit": "kcal/mol"}, {"measurement": "folding stability dG unfold", "setting": "[3]", "result": "-0.277 ± 0.085", "unit": "kcal/mol"}]}, {"sequence": "SAGGSAGGSAAITIPVPPGETVTIKIEIEMTVPPNQRNPDGQRMKPGQKVRMEVTFTFRVDGSAGGSAGGSA [r18_450_TrROS]", "values": [{"measurement": "folding stability dG unfold", "setting": "[1]", "result": "4.24 ± 0.13", "unit": "kcal/mol"}, {"measurement": "folding stability dG unfold", "setting": "[2]", "result": "4.63 ± 0.058", "unit": "kcal/mol"}, {"measurement": "folding stability dG unfold", "setting": "[3]", "result": "3 ± 0.11", "unit": "kcal/mol"}]}, {"sequence": "SAGGSAGGSAGGGSMESVVLNVPIYEKTPDGSWRLVKELPILVPVDASPEVVEKKRKELSAGGSAGGSAGGS [r10_470_JUSTAS]", "values": [{"measurement": "folding stability dG unfold", "setting": "[1]", "result": "-0.481 ± 0.17", "unit": "kcal/mol"}, {"measurement": "folding stability dG unfold", "setting": "[2]", "result": "-0.822 ± 0.68", "unit": "kcal/mol"}, {"measurement": "folding stability dG unfold", "setting": "[3]", "result": "-0.41 ± 0.13", "unit": "kcal/mol"}]}, {"sequence": "SAGMKPGETIKNAKIRITYPNGEKKELKIDDVVKIVEIDEEKGVITIELKNGEKIEIKLPPGAKIEIEPSAG [r5_762_TrROS_Hall]", "values": [{"measurement": "folding stability dG unfold", "setting": "[1]", "result": "3.2 ± 0.58", "unit": "kcal/mol"}, {"measurement": "folding stability dG unfold", "setting": "[2]", "result": "1.83 ± 0.24", "unit": "kcal/mol"}, {"measurement": "folding stability dG unfold", "setting": "[3]", "result": "3.42 ± 0.26", "unit": "kcal/mol"}]}, {"sequence": "SAGGSAGGSPPPDIKVEVESYENPDGQRYYRVTITIDDGRPFDIWMPPGMSPSEAKNWLKDLLSAGGSAGGS [r12_1019_TrROS]", "values": [{"measurement": "folding stability dG unfold", "setting": "[1]", "result": "3.78 ± 0.094", "unit": "kcal/mol"}, {"measurement": "folding stability dG unfold", "setting": "[2]", "result": "3.964 ± 0.035", "unit": "kcal/mol"}, {"measurement": "folding stability dG unfold", "setting": "[3]", "result": "3.35 ± 0.08", "unit": "kcal/mol"}]}, {"sequence": "SAGFTLKLEFPDSTVDVKVTKVDPKNNIIYAEALLPGGEKLTLTYNPETGEIEIEKKKLERTPDGGLEESAG [r14_466_JUSTAS]", "values": [{"measurement": "folding stability dG unfold", "setting": "[1]", "result": "1.13 ± 0.16", "unit": "kcal/mol"}, {"measurement": "folding stability dG unfold", "setting": "[2]", "result": "1.51 ± 0.14", "unit": "kcal/mol"}, {"measurement": "folding stability dG unfold", "setting": "[3]", "result": "0.279 ± 0.14", "unit": "kcal/mol"}]}, {"sequence": "SAGGKVKVVEIRYFPGTNTVEILVEDPGPYLATIRIPAAPDAPIEIDEDANFRVPDAPVVLGEVRPPSAGGS [r16_515_TrMRF]", "values": [{"measurement": "folding stability dG unfold", "setting": "[1]", "result": "1.09 ± 0.072", "unit": "kcal/mol"}, {"measurement": "folding stability dG unfold", "setting": "[2]", "result": "0.843 ± 0.12", "unit": "kcal/mol"}, {"measurement": "folding stability dG unfold", "setting": "[3]", "result": "1.19 ± 0.027", "unit": "kcal/mol"}]}, {"sequence": "SAGGSAGGSAGGISPSANVKLVAVDPERGLVVAVAKDPNSGSVSVVVFDANGNSSILPASAGGSAGGSAGGS [r10_450_TrMRF]", "values": [{"measurement": "folding stability dG unfold", "setting": "[1]", "result": "0.267 ± 0.043", "unit": "kcal/mol"}, {"measurement": "folding stability dG unfold", "setting": "[2]", "result": "0.495 ± 0.029", "unit": "kcal/mol"}, {"measurement": "folding stability dG unfold", "setting": "[3]", "result": "-0.317 ± 0.079", "unit": "kcal/mol"}]}, {"sequence": "SAGGKIKIQFNGQEFTITEFEIIEPQPNKGGGPYYRIRIKFPNGPMEIMIPPNMPPEIKPGDTFTIASAGGS [r16_638_TrROS]", "values": [{"measurement": "folding stability dG unfold", "setting": "[1]", "result": "1.93 ± 0.066", "unit": "kcal/mol"}, {"measurement": "folding stability dG unfold", "setting": "[2]", "result": "1.96 ± 0.032", "unit": "kcal/mol"}, {"measurement": "folding stability dG unfold", "setting": "[3]", "result": "1.797 ± 0.015", "unit": "kcal/mol"}]}, {"sequence": "SAGGMNTESSFPITLPDGRKVLKNVKTDPETGEITVTVTSIGDPNVKTTEKVDPENPEKVLETVTKPESAGG [r13_400_JUSTAS]", "values": [{"measurement": "folding stability dG unfold", "setting": "[1]", "result": "0.0461 ± 0.15", "unit": "kcal/mol"}, {"measurement": "folding stability dG unfold", "setting": "[2]", "result": "0.206 ± 0.11", "unit": "kcal/mol"}, {"measurement": "folding stability dG unfold", "setting": "[3]", "result": "-0.353 ± 0.037", "unit": "kcal/mol"}]}, {"sequence": "SAGGSAGGSAGGSMKLNITVTLPDGTPITLTFPVDKIEEILKEAGLENISPELITKIEPISAGGSAGGSAGG [r7_745_JUSTAS]", "values": [{"measurement": "folding stability dG unfold", "setting": "[1]", "result": "1.37 ± 0.051", "unit": "kcal/mol"}, {"measurement": "folding stability dG unfold", "setting": "[2]", "result": "1.39 ± 0.026", "unit": "kcal/mol"}, {"measurement": "folding stability dG unfold", "setting": "[3]", "result": "1.33 ± 0.034", "unit": "kcal/mol"}]}, {"sequence": "SAGGSAGGEISFDPETGKLTILAPSSISPDAIKKAIEEAGIPFKITSVSYIPDPKTLKVEYEISSAGGSAGG [r6_395_TrMRF]", "values": [{"measurement": "folding stability dG unfold", "setting": "[1]", "result": "0.719 ± 0.19", "unit": "kcal/mol"}, {"measurement": "folding stability dG unfold", "setting": "[2]", "result": "0.249 ± 0.29", "unit": "kcal/mol"}, {"measurement": "folding stability dG unfold", "setting": "[3]", "result": "0.841 ± 0.025", "unit": "kcal/mol"}]}, {"sequence": "SAGGSGMTTTFSKEVSSKEEAEKIFKRGFPDLNAKVTKFDPKKGTVEIELTFPDGKKSKATAPIKKSAGGSA [r2_201_JUSTAS]", "values": [{"measurement": "folding stability dG unfold", "setting": "[1]", "result": "-0.225 ± 0.37", "unit": "kcal/mol"}, {"measurement": "folding stability dG unfold", "setting": "[2]", "result": "0.0996 ± 0.5", "unit": "kcal/mol"}, {"measurement": "folding stability dG unfold", "setting": "[3]", "result": "-0.569 ± 0.58", "unit": "kcal/mol"}]}, {"sequence": "SAMKPGEKVKIKIITFEKKKDPKTGEEKIEMKEIEIEATITEVEEKDGKVTVKIKIENLPPGAMIIIEKSAG [r14_412_TrROS_Hall]", "values": [{"measurement": "folding stability dG unfold", "setting": "[1]", "result": "3.18 ± 0.086", "unit": "kcal/mol"}, {"measurement": "folding stability dG unfold", "setting": "[2]", "result": "3.64 ± 0.087", "unit": "kcal/mol"}, {"measurement": "folding stability dG unfold", "setting": "[3]", "result": "2.05 ± 0.069", "unit": "kcal/mol"}]}, {"sequence": "SAGGSAEVVEREEYFEEKLPNGEKVKVRRIVTEITPIPGLPGYRVEYTVTVEIGDEWETYPLEVAESAGGSA [r15_465_JUSTAS]", "values": [{"measurement": "folding stability dG unfold", "setting": "[1]", "result": "1.61 ± 0.064", "unit": "kcal/mol"}, {"measurement": "folding stability dG unfold", "setting": "[2]", "result": "1.51 ± 0.026", "unit": "kcal/mol"}, {"measurement": "folding stability dG unfold", "setting": "[3]", "result": "1.53 ± 0.08", "unit": "kcal/mol"}]}, {"sequence": "SAGGMLPGEPEVELVLEIEIDVPPGEISAEELERLLRELFPGAEVVDVRVEEEGGKLRIEVVIRLPPSAGGS [r8_202_TrROS_Hall]", "values": [{"measurement": "folding stability dG unfold", "setting": "[1]", "result": "3.17 ± 0.13", "unit": "kcal/mol"}, {"measurement": "folding stability dG unfold", "setting": "[2]", "result": "2.67 ± 0.058", "unit": "kcal/mol"}, {"measurement": "folding stability dG unfold", "setting": "[3]", "result": "3.42 ± 0.14", "unit": "kcal/mol"}]}]}
